Consider 6 molecules from US20250282868A1 (ITEOS BELGIUM, published 2025).

The target in assay [1] is T1, human TREM2 (human, UniProt Q9NZC2 19-230).
T1 construct: on THP-1 WT cells and M2a-like macrophages (endogenous) and on CHO or HEK293T cells overexpressing human TREM2 with DAP12; also called hTREM2
T1 sequence: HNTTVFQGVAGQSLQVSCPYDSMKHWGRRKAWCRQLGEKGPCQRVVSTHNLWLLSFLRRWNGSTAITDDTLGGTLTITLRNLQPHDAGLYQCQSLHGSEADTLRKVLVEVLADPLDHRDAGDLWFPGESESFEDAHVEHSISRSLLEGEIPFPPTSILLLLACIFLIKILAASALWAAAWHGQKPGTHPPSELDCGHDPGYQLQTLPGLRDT
Briefly: flow cytometry, THP-1 WT vs THP-1 TREM2 KO cells, 10 ug/ml. The protocol:
(§1) In order to test specificity of selected antibodies to TREM2, binding was tested by flow cytometry on THP-1 TREM2 KO (clone, produced using CRISPR technology in house) and on THP-1 WT. Cells were incubated with selected anti-TREM2 antibodies (final concentration of 10 μg/ml) for 30 min at 4° C. After washing, bound antibodies were detected with a secondary anti-human IgG Fc PE-labelled for 30 min at 4° C. Fluorescence intensity was measured by flow cytometry.

Assay [2] deals with T2, mouse TREM2 (mouse, UniProt Q99NH8 19-227).
T2 construct: whole, on cells
T2 sequence (looked up): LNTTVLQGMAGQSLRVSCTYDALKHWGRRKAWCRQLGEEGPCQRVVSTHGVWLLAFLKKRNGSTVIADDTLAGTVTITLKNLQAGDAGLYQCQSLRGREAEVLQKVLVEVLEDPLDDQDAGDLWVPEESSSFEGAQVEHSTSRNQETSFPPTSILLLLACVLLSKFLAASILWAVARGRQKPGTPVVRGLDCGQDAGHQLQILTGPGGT
As to the kind of experiment: MFI on CT26 cells over-expressing mouse TREM2 and DAP12. The protocol:
(§2) Cross-reactivity to mouse TREM2 was assessed using CT26 cells over-expressing mouse TREM2 and DAP12 (Table 23). Eight anti-TREM2 antibodies and both benchmark antibodies were considered cross-reactive to mouse TREM2 (MFI higher than isotype control and fold change of CT26-TREM2 over the CT26 Empty Vector higher than 5). The remaining anti-TREM2 antibodies were considered as being low to not cross-reactive (fold change less than 5). EOS006171 was not tested due to clear non-cross-reactivity preliminary data by octet (data not shown).

In assay [3] the target is T1, human TREM2. Briefly: flow cytometry, competition with LDL-Alexafluor-488 on CHO cells overexpressing human TREM2/DAP12. The procedure:
(§3) Exemplary anti-TREM2 antibodies were tested in order to characterize their ability to enter in competition with TREM2 ligand, LDL, on CHO overexpressing human TREM2/DAP12. Antibodies (dose response curves from 66.65 nM to 0.07 nM) were incubated for 30 min with cells in a soluble fashion, followed by an incubation with LDL coupled with Alexafluor-488 (at 1 μg/mL final) for 30 min. Finally, after 2 washes, cells were acquired on flow cytometer. The median MFI of Alexafluor-488 was used to plot the graphs. Benchmark antibody MOR044746 was used as positive control.

Assay [4] deals with T3, cynomolgus TREM2 (cynomolgus, UniProt A0A2K5UY34 49-260).
T3 construct: also called cynoTREM2; cTREM2
T3 sequence: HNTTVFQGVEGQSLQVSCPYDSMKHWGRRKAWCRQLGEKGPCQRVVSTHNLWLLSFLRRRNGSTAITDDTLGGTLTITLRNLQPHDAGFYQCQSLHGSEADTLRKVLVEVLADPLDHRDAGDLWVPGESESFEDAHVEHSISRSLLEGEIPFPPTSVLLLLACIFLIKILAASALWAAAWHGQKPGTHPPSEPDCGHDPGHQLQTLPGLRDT
Briefly: MFI on CHO cells over-expressing cynoTREM2-DAP12 vs CHO empty vector. The protocol:
(§4) Cross-reactivity of anti-TREM2 antibodies to cynomolgus TREM2 (cynoTREM2) was assessed using CHO over-expressing cynoTREM2-DAP12 (Table 22). Benchmark antibodies, AB52 and PN-37012, were examined for comparison.

Assay [5] addresses T2, mouse TREM2. As to the kind of experiment: MFI on CT26 cells over-expressing mouse TREM2 and DAP12; column 'Considered cross-reactive'. The procedure: as §2
Assay [6] has as its target T2, mouse TREM2. Briefly: MFI on CT26 cells over-expressing mouse TREM2 and DAP12 vs CT26 empty vector. The protocol:
as §2

The target of assay [7] is T3, cynomolgus TREM2. As to the kind of experiment: MFI on CHO cells over-expressing cynoTREM2-DAP12. The procedure:
as §4

In assay [8] the target is T1, human TREM2. As to the kind of experiment: flow cytometry, M2a-like macrophages. The procedure: (§5) M2a-like macrophages were produced in vitro from monocytes of healthy donors. Briefly, after PBMCs isolation from peripheral blood using Lymphoprep™ gradient, CD14+ cells were purified and seeded in presence of MCSF 50 ng/ml for 6 days. Macrophages were then cultured with IL-13 and IL-4 at a concentration of 20 ng/ml for two additional days and then used for a cell-based binding assay.
(§6) M2a-like macrophages were incubated with anti-TREM2 antibodies (dose-response curve with 11 concentrations from 10 μg/ml to 0.0001 μg/ml) for 30 min at 4° C. After washing, bound antibodies were detected with a secondary anti-human IgG Fc PE-labelled for 30 min at 4° C. Fluorescence intensity was measured by flow cytometry. Equilibrium dissociation constant (kD) was then calculated for each antibody using median MFI normalized over isotype control.

For assay [9], the target named is T1, human TREM2. Briefly: cell-based or functional assay.
Assay [10] deals with T1, human TREM2. As to the kind of experiment: flow cytometry, M2a-like macrophages, dose-response. The procedure: as §5, §6
Assay [11] deals with T1, human TREM2. Briefly: flow cytometry, THP-1 WT cells, 10 ug/ml. The procedure:
as §1

The target of assay [12] is T1, human TREM2. Briefly: cell-based or functional assay. This is another data set of the same source.
In assay [13] the target is T1, human TREM2. Briefly: flow cytometry, competition with LDL-Alexafluor-488 on CHO cells overexpressing human TREM2/DAP12; only 1 value generated. The protocol: as §3

B1: EOS006165 (antibody, V domains shown)
VH: QVQLVQSGAEVKKPGSSVKVSCKASGGTFSSYAISWVRQAPGQGLEWMGGIIPISGTANYAQKFQGRVTITADESTSTAYMELSSLRSEDTAVYYCARTQEYTAFDIWGQGTMVTVSS
VL: EIVLTQSPATLSLSPGERATLSCRASQSVSSYLAWFQQKPGQAPRLLIYDASNRATGIPARFSGSGSGTDFTLTISSLEPEDFAVYYCQQDYHWPITFGGGTKVEIK
Take B1: the “MFI Fold change (THP-1 WT over THP-1 TREM2 KO)” value in assay [1] amounted to 2.5 fold. The “Binding to CT26-TREM2 MFI” value in assay [2] is 649 MFI. The same molecule returned a half-maximal inhibitory concentration (IC50) in assay [3] of 5.29 nM. The “MFI Fold change (CHO-cTREM2 over CHO-EV)” value in assay [4] came out at 189 fold. Also, the binding result in [5] was “no binding (tested: fold change less than 5)”. The “MFI Fold change (CT26-TREM2 over CT26-EV)” value in [6] was 2.3 fold. Besides, the “Binding to CHO-cTREM2 MFI” value in assay [7] amounted to 8500 MFI. In [8], this molecule had a Fold over isotype of 2.2 fold. Besides, the “Stabilization ratio (Mean of 2 replicates)” value (from here on “Stabilization ratio”) in assay [9] was found to be 0.54 ratio. Further, in [10], the Kd came to 0.41 nM. Also, in [11], the “Fold over isotype control THP1 WT” value is 1.7 fold. For the same molecule, the “Fold over isotype control at 66 nM” value in [12] worked out at 1.03 fold.

B2: EOS006172 (antibody, V domains shown)
VH: QVQLVQSGAEVKKPGSSVKVSCKASGGTFSSYAISWVRQAPGQGLEWMGGIIPISGTANYAQKFQGRVTITADESTSTAYMELSSLRSEDTAVYYCARTQEYTLFDIWGQGTMVTVSS
VL: EIVLTQSPATLSLSPGERATLSCRASQSVSSYLAWFQQKPGQAPRLLIYDASNRATGIPARFSGSGSGTDFTLTISSLEPEDFAVYYCQQDFHWPITFGGGTKVEIK
On to B2, for which the “MFI Fold change (THP-1 WT over THP-1 TREM2 KO)” value in [1] amounted to 8.9 fold. For the same molecule, in assay [2], the “Binding to CT26-TREM2 MFI” value amounted to 1660 MFI. In addition, in [3], the IC50 was found to be 0.115 nM. Moreover, the “MFI Fold change (CHO-cTREM2 over CHO-EV)” value in assay [4] worked out at 418 fold. In addition, the binding result in assay [5] is given as “no binding (tested: fold change less than 5)”. Moreover, in assay [6], the “MFI Fold change (CT26-TREM2 over CT26-EV)” value was 4.9 fold. For the same molecule, in assay [7], the “Binding to CHO-cTREM2 MFI” value turned out to be 17200 MFI. In [8], the Fold over isotype is 9.8 fold. In addition, in assay [9], the “Stabilization ratio” value was determined as 0.46 ratio. For the same molecule, the Kd in assay [10] was 0.09 nM. Also, the “Fold over isotype control THP1 WT” value in [11] came out at 8.7 fold. Also, the “Fold over isotype control at 66 nM” value in [12] turned out to be 0.59 fold.

B3: EOS004283 (antibody, human IgG1, kappa, V domains shown)
VH: QVQLVQSGAEVKKPGSSVKVSCKASGGTFAQYAISWVRQAPGQGLEWMGVIIPDSGTANYAQKFQGRVTITADESTSTAYMELSSLRSEDTAVYYCARTQENTIFDIWGQGTLVTVSS
VL: EIVLTQSPATLSLSPGERATLSCRASQSVSSYLAWFQQKPGQAPRLLIYDASNRATGIPARFSGSGSGTDFTLTISSLEPEDFAVYYCQQDYEWPITFGGGTKVEIKR
B3 gave an IC50 in [13] of 0.138 nM. For the same molecule, the “Fold over isotype control at 66 nM” value in [12] was 0.267 fold.

B4: EOS006162 (antibody, V domains shown)
VH: QVQLVQSGAEVKKPGSSVKVSCKASGGTFSSYAISWVRQAPGQGLEWMGGIIPISGTANYAQKFQGRVTITADESTSTAYMELSSLRSEDTAVYYCARTQEYTLFDSWGQGTMVTVSS
VL: EIVLTQSPATLSLSPGERATLSCRASQSVSSYLAWFQQKPGQAPRLLIYDASNRATGIPARFSGSGSGTDFTLTISSLEPEDFAVYYCQQDYHWPITFGGGTKVEIK
As to B4, the “MFI Fold change (THP-1 WT over THP-1 TREM2 KO)” value in assay [1] turned out to be 11 fold. Moreover, the “Binding to CT26-TREM2 MFI” value in assay [2] is 2000 MFI. Further, in assay [3], the IC50 is 0.116 nM. Besides, the “MFI Fold change (CHO-cTREM2 over CHO-EV)” value in assay [4] came to 393 fold. Also, in [5], the binding result is recorded as “no binding”. In addition, the “MFI Fold change (CT26-TREM2 over CT26-EV)” value in assay [6] was 6.4 fold. Further, the “Binding to CHO-cTREM2 MFI” value in assay [7] was determined as 17100 MFI. In [8], this molecule came in with a Fold over isotype of 10.8 fold. Further, the “Stabilization ratio” value in assay [9] is 0.4 ratio. The molecule also came in with a Kd in assay [10] of 0.13 nM. In addition, the “Fold over isotype control THP1 WT” value in assay [11] was 9.9 fold. Besides, the “Fold over isotype control at 66 nM” value in assay [12] was determined as 0.785 fold.

B5: EOS006167 (antibody, V domains shown)
VH: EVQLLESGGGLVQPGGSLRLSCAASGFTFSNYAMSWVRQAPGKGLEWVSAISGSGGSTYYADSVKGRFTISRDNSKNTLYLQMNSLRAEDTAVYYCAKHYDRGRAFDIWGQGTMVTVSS
VL: EIVLTQSPGTLSLSPGERATLSCRASQSVSSSYLAWYQQKPGQAPRLLIYGASSRATGIPDRFSGSGSGTDFTLTISRLEPEDFAVYYCQQYDDVPYTFGGGTKVEIK
As for B5, in [1], the “MFI Fold change (THP-1 WT over THP-1 TREM2 KO)” value was found to be 2.2 fold. Moreover, the “Binding to CT26-TREM2 MFI” value in [2] amounted to 2060 MFI. For the same molecule, the “MFI Fold change (CHO-cTREM2 over CHO-EV)” value in [4] stood at 128 fold. Also, the binding result in [5] is on record as “no binding (tested: fold change less than 5)”. Further, the “MFI Fold change (CT26-TREM2 over CT26-EV)” value in assay [6] came out at 4.7 fold. In assay [7], the “Binding to CHO-cTREM2 MFI” value stood at 7220 MFI. The molecule also returned a Fold over isotype in assay [8] of 1.6 fold. Also, the “Stabilization ratio” value in assay [9] stood at 0.82 ratio. The molecule also yielded a Kd in assay [10] of 10.2 nM. Further, in [11], the “Fold over isotype control THP1 WT” value stood at 2.1 fold. In addition, in assay [12], the “Fold over isotype control at 66 nM” value was 1.57 fold and the “pSYK/TotSYK EC50 (nM)” value stood at 49.9 nM.

B6: EOS006168 (antibody, V domains shown)
VH: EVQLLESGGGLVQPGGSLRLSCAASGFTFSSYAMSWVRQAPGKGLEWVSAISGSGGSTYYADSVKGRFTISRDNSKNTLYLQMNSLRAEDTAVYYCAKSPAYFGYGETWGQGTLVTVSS
VL: EIVLTQSPGTLSLSPGERATLSCRASQSVSSSFLAWYQQKPGQAPRLLIYGASSRATGIPDRFSGSGSGTDFTLTISRLEPEDFAVYYCQQYYSPPITFGGGTKVEIK
With B6, the “MFI Fold change (THP-1 WT over THP-1 TREM2 KO)” value in assay [1] is 2.3 fold. The “Binding to CT26-TREM2 MFI” value in assay [2] turned out to be 655 MFI. Also, the “MFI Fold change (CHO-cTREM2 over CHO-EV)” value in [4] was 3.3 fold. Also, in [5], the binding result was “no binding (tested: fold change less than 5)”. In addition, in assay [6], the “MFI Fold change (CT26-TREM2 over CT26-EV)” value turned out to be 1.6 fold. In addition, in assay [7], the “Binding to CHO-cTREM2 MFI” value worked out at 194 MFI. In addition, the Fold over isotype in assay [8] amounted to 1.9 fold. For the same molecule, in assay [9], the “Stabilization ratio” value worked out at 0.8 ratio. In assay [10], this molecule showed a dissociation constant Kd of 2.99 nM. For the same molecule, the “Fold over isotype control THP1 WT” value in assay [11] was 3 fold. Further, in assay [12], the “Fold over isotype control at 66 nM” value was found to be 1.99 fold and the “pSYK/TotSYK EC50 (nM)” value is 96 nM.
